# Reference: patent publication US10323078B2, “Isolated peptides and fragments thereof from fibrinogen for use as drugs, particularly in skin inflammatory diseases” (Universite Paris Descartes, priority 2015, dated 2019)
# Experiments:
# [1] = system: Pfg; assay: Binding of biotinylated Pfg to immobilized fibrinogen (polystyrene plate); set-up: species or system Propionibacterium acnes; details: various quantities of fibrinogen immobilized; biotinylated Pfg 0.1 μg/ml, 2 h at 23° C.
# Protocol: FIG. 5: Binding of P. acnes surface proteins to fibrinogen. (A) Various quantities of human fibrinogen (hFg) and bovine fibrinogen (bFg) were immobilized onto a 96-well polystyrene plate at 4° C. for 18 h and incubated with biotinylated Pfg at 0.1 μg/ml for 2 h at 23° C. Bovine serum albumin (BSA) was used as negative control. Bound material was detected by using the HRP-streptavidin conjugate. Peroxidase activity was measured by using the ABTS substrate at 405 nm. Proteins (10 μg per lane) were separated by 10% SDS-PAGE and detected by (B) Commassie blue staining, and transferred to nitrocellulose membrane and incubated with (C) HRP-streptavidine alone, and (D) biotinylated Pfg (0.1 μg/ml). Lanes 1: molecular weight standards. Lane 2: BSA. […]
# To characterize the interaction between P. acnes and ligands, we used biotinylated molecules in quantitative and qualitative assays. […] For quantitative analysis, unlabeled protein were diluted into 50 mM carbonate-bicarbonate, pH 9.6 buffer to yield a protein concentration ranging from 0.01 to 50 μg/ml, and then immobilized to 96-well polystyrene plates at 4° C. overnight. […] After washing, bound peroxidase was detected using the chromogenic peroxidase substrate ABTS. […] Binding activity was detected by incubating the membranes with 20 ml of PBT containing biotinylated proteins (0.1 μg/ml) for 2 h at room temperature followed by three washes with PBT. […]
# [2] = system: Pfg; assay: Western ligand blot with biotinylated Pfg; type: binding, Propionibacterium acnes; details: 10 μg per lane, 10% SDS-PAGE; biotinylated Pfg 0.1 μg/ml
# Protocol: FIG. 5: Binding of P. acnes surface proteins to fibrinogen. (A) Various quantities of human fibrinogen (hFg) and bovine fibrinogen (bFg) were immobilized onto a 96-well polystyrene plate at 4° C. for 18 h and incubated with biotinylated Pfg at 0.1 μg/ml for 2 h at 23° C. Bovine serum albumin (BSA) was used as negative control. Bound material was detected by using the HRP-streptavidin conjugate. Peroxidase activity was measured by using the ABTS substrate at 405 nm. Proteins (10 μg per lane) were separated by 10% SDS-PAGE and detected by (B) Commassie blue staining, and transferred to nitrocellulose membrane and incubated with (C) HRP-streptavidine alone, and (D) biotinylated Pfg (0.1 μg/ml). Lanes 1: molecular weight standards. Lane 2: BSA. Lane 3: hFg. Lane 4: bFg.
# FIG. 8: Cloning of Bß human fibrinogen fragments and binding with Pfg. (A) Cloning and expression of recombinant human Bß fibrinogen fragments Fg1, Fg2, Fg3 and Fg4. Fibrinogen fragments were obtained by RT-PCR and expression plasmids were constructed as described in Materials and Methods. (B) GST-fused proteins were expressed in E. coli, fractionated by 12.5% SDS-PAGE, and detected by Coomassie blue staining (B), and incubated with biotinylated Pfg (0.1 μg/ml) as described in Materials and Methods (C).
# To characterize the interaction between P. acnes and ligands, we used biotinylated molecules in quantitative and qualitative assays. In a first set of assays, ECM ligands (fibrinogen, collagens I, IV, VI and VIII) were used as labelled proteins with biotin. In a second set of assays, P. acnes surface proteins (total extract and purified Pfg) were biotinylated. For quantitative analysis, unlabeled protein were diluted into 50 mM carbonate-bicarbonate, pH 9.6 buffer to yield a protein concentration ranging from 0.01 to 50 μg/ml, and then immobilized to 96-well polystyrene plates at 4° C. overnight. The wells were rinsed three times with 0.2 ml of PBS containing 0.05% Tween-20 (PBS-Tween). Biotinylated proteins (0.01 to 16 μg/ml in PBS-Tween) were added to the wells and incubated at room temperature for 1 h. The wells were rinsed three times with 0.2 ml of PBS-Tween. Peroxidase conjugated to streptavidin (0.5 μg/ml in PBS-Tween) was added and incubated for 30 min at room temperature. After washing, bound peroxidase was detected using the chromogenic peroxidase substrate ABTS. For qualitative analysis, unlabelled protein (10-75 μg per lane) were separated by SDS-PAGE and then transferred to nitrocellulose membranes (0.45 μm pore size), as described previously (Towbin, 1979). Membranes were then saturated overnight at 4° C. in PBS containing 5% BSA, 0.05% Tween-20 (PBT buffer). Binding activity was detected by incubating the membranes with 20 ml of PBT containing biotinylated proteins (0.1 μg/ml) for 2 h at room temperature followed by three washes with PBT. Bound biotinylated proteins were detected by incubating the membrane with peroxidase conjugated to streptavidin (0.5 μg/ml in PBT) for 1 h at room temperature. After washing, bound peroxidase activity was detected using 3,3′-diaminobenzidine in the presence of CoCl2 and H2O2 (Harlow and Lane, 1988).
# Since it was shown that Pfg is recognized by fibrinogen, this ECM ligand was used to analyze the nature of this interaction. First it was analyzed the ability of fibrinogen to be recognized by purified Pfg (FIG. 5). Human and bovine Fg (hFg, bFg) were immobilized to polysterene plate and the binding activity of biotinylated Pfg was measured. […] It has been shown that fibrinogen is a glycoprotein containing both N- and O-linked glycans (Debeire 1985; Reid Townsend 1982; L'Hôte 1996). […] In parallel, deglycosylation was assessed by visualization of a shift in the mobility after electrophoresis separation and Coomassie blue staining (FIG. 6A, lanes 3 and 5) and also by using the RCA-I plant lectin able to recognize ß-linked galactosyl residues in terminal position (FIG. 6C) (Green, 1987). […]
# [3] = system: P. acnes 6919 strain; assay: Adhesion assay, biotinylated P. acnes binding to HaCaT keratinocytes; type: cell-based, Propionibacterium acnes; details: P. acnes 6919 pre-treated with whole fibrinogen 0.01 to 0.5 mM, 1 h at 37° C.
# Protocol: FIG. 12: Dose-dependent inhibition of P. acnes binding to keratinocytes. Biotinylated P. acnes 6919 strain at concentrations adjusted to 0.1 of absorbance at 600 nm was pre-treated with whole human (dark gray bar) and bovine (light gray bar) fibrinogen at the concentrations ranging from 0.01 to 0.5 mM and incubated 1 h at 37° C. with the human HaCaT keratinocyte cell line. After removal of unbound bacteria, adhesion activity was detected at 410 nm. Data are means±S.D. of three separate experiments. Statistical significance is indicated by * (P<0.05), ** (P<0.01), *** (P<0.001), and **** (P<0.0001), respectively.
# The bacterial suspension was adjusted at 600 nm to the desired concentration, pretreated with peptides Fg1 and Fg2 at the final concentration ranging from 0.87 to 7 μM for 1 h at 37° C. and deposited on the previously saturated cells with a solution of PBS SVF 2% for 2 h. After incubation for 1 h at 37° C., unbound bacteria are removed by 3 washes with PBS and fixed bacteria are detected by a streptavidin-peroxidase solution of 0.5 μg/ml for 30 min.
# Whole P. acnes bacteria are labelled by biotinylation, pre-treated or not with the peptides and contacted with the various cell lines. After removal of the unfixed bacteria, the adhesion activity was measured spectrophotometrically by using the streptavidin-peroxidase conjugate and a chromogenic substrate. […]
molecule,measurement,setting,value
bovine fibrinogen: purified commercial bovine fibrinogen (Sigma) (protein) chain 1: EDGSDPPSGDFLTEGGGVRGPRLVERQQSACKETGWPFCSDEDWNTKCPSGCRMKGLIDEVDQDFTSRINKLRDSLFNYQKNSKDSNTLTKNIVELMRGDFAKANNNDNTFKQISEDLRSRIEILRRKVIEQVQRIKVLQKNVRDQLVDMKRLEVDIDIKIRSCKGSCSRALEHKVDLEDYKNQQKQLEQVIAINLLPSRDIQYLPLIKMSTITGPVPREFKSQLQEAPLEWKALLEMQQTKMVLETFGGDGHARGDSVSQGTGLAPGSPRKPGTSSIGNVNPGSYGPGSSGTWNPGRPEPGSAGTWNPGRPEPGSAGTWNPGRPEPGSAGTWNPGRPEPGSAGTWNPGRPEPGSAGTWNTGSSGSSSFRPDSSGHGNIRPSSPDWGTFREEGSVSSGTKQEFHTGKLVTTKGDKELLIDNEKVTSGHTTTTRRSCSKVITKTVTNADGRTETTKEVVKSEDGSDCGDADFDWHHTFPSRGNLDDFFHRDKDDFFTRSSHEFDGRTGLAPEFAALGESGSSSSKTSTHSKQFVSSSTTVNRGGSAIESKHFKMEDEAESLEDLGFKGAHGTQKGHTKARPARGIHTSPLGEPSLTP chain 2: QFPTDYDEGQDDRPKVGLGARGHRPYDKKKEEAPSLRPVPPPISGGGYRARPATATVGQKKVERKPPDADGCLHADPDLGVLCPTGCKLQDTLVRQERPIRKSIEDLRNTVDSVSRTSSSTFQYITLLKNMWKGRQNQVQDNENVVNEYSSHLEKHQLYIDETVKNNIPTKLRVLRSILENLRSKIQKLESDVSTQMEYCRTPCTVTCNIPVVSGKECEKIIRNEGETSEMYLIQPEDSSKPYRVYCDMKTEKGGWTVIQNRQDGSVDFGRKWDPYKQGFGNIATNAEGKKYCGVPGEYWLGNDRISQLTNMGPTKLLIEMEDWKGDKVTALYEGFTVQNEANKYQLSVSKYKGTAGNALIEGASQLVGENRTMTIHNSMFFSTYDRDNDGWKTTDPRKQCSKEDGGGWWYNRCHAANPNGRYYWGGAYTWDMAKHGTDDGVVWMNWQGSWYSMKKMSMKIRPYFPEQ chain 3: YVATRDNCCILDERFGSYCPTTCGIADFLNNYQTSVDKDLRTLEGILYQVENKTSEARELVKAIQISYNPDQPSKPNNIESATKNSKSMMEEIMKYETLISTHESTIRFLQEVYNSNSQKIVNLRDKVVQLEANCQEPCQDTVKIHDVTGRDCQDVANKGAKESGLYFIRPLKAKQFLVYCEIDGSGNGWTVFQKRLDGSLDFKKNWIQYKEGFGHLSPTGTGNTEFWLGNEKIHLISTQSSIPYVLRIQLEDWNGRTSTADYASFKVTGENDKYRLTYAYFIGGDAGDAFDGYDFGDDSSDKFFTSHNGMQFSTWDSDNDKYDGNCAEQVGIGWWMNKCHAGHLNGVYYQGGTYSKTSTPNGYDNGIIWATWKSRWYSMKKTTMKIIPLNRLAIGEGQQHQLGGAKQVGVEHHVEIEYD,Binding of biotinylated Pfg to immobilized fibrinogen,[1],dose-dependent
same,Recognition by biotinylated Pfg after electrophoretic separation of fibrinogen,[2],recognized by Pfg
same,Inhibition of adhesion of P. acnes to keratinocytes,[3],able to inhibit the adhesion
